Reference: paper PMC8605242, “Multiple variants of the human presequence translocase motor subunit Magmas govern the mitochondrial import” (The Journal of Biological Chemistry, 2021)

T1: GST-Magmas-1 (human, UniProt I3L3T0 1-145)
T1 construct: Magmas-1, human variant of Magmas with a unique N-terminal extension, full length; UniProt entry I3L3T0; vector pGEX-KG; also called GST tagged Magmas-1; source: E. coli (C41), purified
T1 sequence (looked up): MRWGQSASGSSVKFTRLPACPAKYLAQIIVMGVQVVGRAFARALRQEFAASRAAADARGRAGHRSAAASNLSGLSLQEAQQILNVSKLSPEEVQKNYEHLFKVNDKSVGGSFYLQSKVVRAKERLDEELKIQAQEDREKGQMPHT

T2: GST-Magmas (human, UniProt Q9Y3D7 1-125)
T2 construct: Magmas, human, full length; vector pGEX-KG; also called GST tagged Magmas; source: E. coli (C41), purified
T2 sequence (looked up): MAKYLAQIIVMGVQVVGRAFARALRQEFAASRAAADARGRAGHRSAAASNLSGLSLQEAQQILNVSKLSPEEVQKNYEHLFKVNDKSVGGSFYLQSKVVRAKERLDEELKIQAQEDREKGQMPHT

B1: DnaJC19J+T (domain or fragment)
chain: not shown
notes: DnaJC19, human J-protein, N-terminal truncation with the J-domain and predicted MTS (J + T), amino acids 34-112; also called hexahistidine tagged DnaJC19J+T
B2: DnaJC15J+T (domain or fragment)
chain: not shown
notes: DnaJC15, human J-protein, N-terminal truncation with the J-domain and predicted MTS (J + T), amino acids 69-146; also called hexahistidine tagged DnaJC15J+T

Assays:
DnaJC19J+T = biological target: B1; assay: cell-based or functional assay
DnaJC15J+T = biological target: B2; assay: cell-based or functional assay
GST-Magmas-1 = biological target: T1, GST-Magmas-1; assay: pull-down; 1 μM GST alone or GST-Magmas variants held on beads, increasing concentrations of DnaJC19J+T or DnaJC15J+T, 45 min, 24 °C; 50 mM Tris-HCl pH 7.5, 100 mM KCl, 0.2% Triton-X 100, 10% glycerol, 1 mM PMSF; blocked with 0.1% BSA; SDS-PAGE, Coomassie, densitometry; details: both partners purified
GST-Magmas = biological target: T2, GST-Magmas; assay: as above; details: both partners purified

Sequence of DnaJC15J+T (Q9Y5T4 69-146): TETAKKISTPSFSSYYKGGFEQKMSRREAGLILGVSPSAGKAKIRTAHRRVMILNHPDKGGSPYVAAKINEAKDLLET
Sequence of DnaJC19J+T (Q96DA6 34-112): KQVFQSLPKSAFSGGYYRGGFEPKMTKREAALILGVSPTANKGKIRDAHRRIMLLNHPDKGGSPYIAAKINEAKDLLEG

Binder | inhibition of the DnaJC19J+T-stimulated ATP hydrolysis of mortalin, single turnover assay, Mortalin-ATP : J-protein : Magmas variant 1:2:4 (DnaJC19J+T) | inhibition of the DnaJC15J+T-stimulated ATP hydrolysis of mortalin, single turnover assay, Mortalin-ATP : J-protein : Magmas variant 1:2:4 (DnaJC15J+T) | binding result (GST-Magmas-1) | binding result (GST-Magmas)
hexahistidine tagged Magmas-2 (natural protein, human, UniProt I3L1U7 1-129, looked up) MAKYLAQIIVMGVQVVGRAFARALRQEFAASRAAADARGRAGHRSAAASNLSGLSLQEAQQILNVSKLSPEEVQKNYEHLFKVNDKSVGGSFYLQSKRSGLSMLPKLISNSWPQAILLPWPPKTLGLHA | > 90% | > 90% | – | –
B1 | – | – | binds | binds
B2 | – | – | – | binds
